Results on 78 sequences are retold here after the supplement of paper PMC7877785.

This data set in a line: self-splicing fitness, log relative to wild type (ln ratio); higher = more splicing; Tetrahymena group I intron in knt gene, E. coli kanamycin selection, DiMSum; sequences stand for … in CUCUCU…GGAGGGAAAAGUUAUCAGGCAUGCACCUGGUAGCUAGUCUUUAAACCAAUAGAUUGCAUCGGUUUAAAAGGCAAGACCGUCAAAUUGCGGGAAAGGGGUCAACAGCCGUUCAGUACCAAGUCUCAGGGGAAACUUUGAGAUGGCCUUGCAAAGGGUAUGGUAAUAAGCUGACGGACAUGGUCCUAACCACGCAGCCAAGUCCUAAGUCAACAGAUCUUCUGUUGAUAUGGAUGCAGUUCACAGACUAAAUGUCGGUCGGGGAAGAUGUAUUCUUCUCAUAAGAUAUAGUCGGACCUCUCCUUAAUGGGAGCUAGCGGAUGAAGUGAUGCAACACUGGAGCCGCUGGGAACUAAUUUGUAUGCGAAAGUAUAUUGAUUAGUUUUGGAGUACUCGUGGUCG
The gist of the method:
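DiMSum derived fitness as the error-weighted combination of fold changes across replicates, kanamycin versus no kanamycin, normalised to wild type. E. coli BL21(DE3) held the library, which randomised all eight P1ex-region intron nucleotides within the knt kanamycin-resistance gene on pET-22b(+). Six replicate transformations grew overnight at 37°C or 30°C on LB agar with or without 25 μg/mL kanamycin, also containing 100 μg/mL carbenicillin, 50 μM IPTG and 0.2% rhamnose, and pooled colonies were amplicon-sequenced on an Illumina HiSeq 2500.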

± gives the uncertainty stated by the source.

Turning to GGAAAGCAAUAUUACGUCAU, the “self-splicing fitness (ln)” value (30 °C) was -2.34 ± 0.18 and the “self-splicing fitness (ln)” value (37 °C) is -1.38 ± 0.18.
The corresponding values for UGAUAGCAAUAUUACGUCGG are -1.4 ± 0.12 and -0.72 ± 0.12.
For UUCUAGCAAUAUUACGUUAA, the “self-splicing fitness (ln)” value is, setting by setting: (30 °C) -2.15 ± 0.23; (37 °C) -1.32 ± 0.18.
Take AAUUAGCAAUAUUACGCAGC: the “self-splicing fitness (ln)” value was -3.15 ± 0.48 (30 °C) and -2.21 ± 0.27 (37 °C).
With UGCCAGCAAUAUUACGCGCC, the “self-splicing fitness (ln)” value by setting is: (30 °C) -1.15 ± 0.17; (37 °C) -0.705 ± 0.23.
The like results for CAAUAGCAAUAUUACGUGGG were, in that order, -3.7 ± 0.15 and -3.49 ± 0.21.
Consider GCCUAGCAAUAUUACGGAGU, for which the “self-splicing fitness (ln)” value (30 °C) was -0.965 ± 0.085 and the “self-splicing fitness (ln)” value (37 °C) is -0.198 ± 0.094.
The like results for GCUCAGCAAUAUUACGAAAC were, in that order, -0.549 ± 0.14 and -0.851 ± 0.17.
The corresponding values for CUGCAGCAAUAUUACGCAGA are -2.32 ± 0.31 and -2.97 ± 0.38.
As to CGGCAGCAAUAUUACGUACU, the “self-splicing fitness (ln)” value runs as follows: (30 °C) -0.872 ± 0.052; (37 °C) -0.714 ± 0.06.
The like results for AUUGAGCAAUAUUACGACCU were, in that order, -3.17 ± 0.27 and -0.0611 ± 0.17.
The like results for AAUUAGCAAUAUUACGAUUU were, in that order, -0.494 ± 0.11 and -0.268 ± 0.13.
As for CCAUAGCAAUAUUACGGAAG, the “self-splicing fitness (ln)” value is -3.19 ± 0.16 (30 °C) and -1.67 ± 0.14 (37 °C).
The corresponding values for UGAUAGCAAUAUUACGGUCC are -0.857 ± 0.1 and 0.318 ± 0.14.
The corresponding values for UGACAGCAAUAUUACGUAGU are -3 ± 0.17 and -1.22 ± 0.14.
Regarding CCGAAGCAAUAUUACGCCCU, the “self-splicing fitness (ln)” value (37 °C) was -1.26 ± 0.46.
As for UCACAGCAAUAUUACGUCAA, the “self-splicing fitness (ln)” value reads like this: (30 °C) -2.7 ± 0.17; (37 °C) -1.46 ± 0.13.
Consider GACGAGCAAUAUUACGGAAC, for which the “self-splicing fitness (ln)” value reads like this: (30 °C) -1.3 ± 0.19; (37 °C) -2.43 ± 0.35.
The corresponding values for UUGCAGCAAUAUUACGGGUG are -1.7 ± 0.081 and -1.59 ± 0.13.
On to GAGAAGCAAUAUUACGUGCG, for which the “self-splicing fitness (ln)” value runs as follows: (30 °C) -1.71 ± 0.093; (37 °C) -1.02 ± 0.1.
The like results for UCGUAGCAAUAUUACGUCUG were, in that order, -0.251 ± 0.091 and -0.589 ± 0.12.
On to UGGAAGCAAUAUUACGUGUC, for which the “self-splicing fitness (ln)” value (37 °C) is -2.38 ± 0.18.
As to UCGUAGCAAUAUUACGUAAA, the “self-splicing fitness (ln)” value is -2.09 ± 0.2 (30 °C) and -0.594 ± 0.17 (37 °C).
The corresponding values for CCGUAGCAAUAUUACGCUUA are -3.52 ± 0.45 and -1.7 ± 0.35.
As to UCCUAGCAAUAUUACGAGUG, the “self-splicing fitness (ln)” value runs as follows: (30 °C) -2.1 ± 0.1; (37 °C) -0.96 ± 0.1.
As for GGAGAGCAAUAUUACGAUCU, the “self-splicing fitness (ln)” value (37 °C) was -2.47 ± 0.29.
As to ACAAAGCAAUAUUACGGUAG, the “self-splicing fitness (ln)” value runs as follows: (30 °C) -3.48 ± 0.16; (37 °C) -3.21 ± 0.24.
The like results for GAGAAGCAAUAUUACGGUCC were, in that order, -2.14 ± 0.24 and -1.06 ± 0.21.
Turning to UCUGAGCAAUAUUACGCGCG, the “self-splicing fitness (ln)” value (37 °C) is -1.69 ± 0.46.
Consider CGACAGCAAUAUUACGACGC, for which the “self-splicing fitness (ln)” value was -2.21 ± 0.11 (30 °C) and -0.587 ± 0.12 (37 °C).
For GUCAAGCAAUAUUACGGCUA, the “self-splicing fitness (ln)” value (30 °C) was -1.28 ± 0.073 and the “self-splicing fitness (ln)” value (37 °C) is -0.658 ± 0.066.
On to GGGGAGCAAUAUUACGACCG, for which, where the note is “30 °C”, the “self-splicing fitness (ln)” value was -1.02 ± 0.41.
As to UAGUAGCAAUAUUACGUAAC, the “self-splicing fitness (ln)” value runs as follows: (30 °C) -3.54 ± 0.15; (37 °C) -1.89 ± 0.15.
The like results for AUGAAGCAAUAUUACGCAGG were, in that order, -0.47 ± 0.12 and -0.916 ± 0.14.
The corresponding values for CCAAAGCAAUAUUACGUGAG are -0.357 ± 0.049 and 0.0847 ± 0.073.
The corresponding values for GUAAAGCAAUAUUACGAUCA are -0.396 ± 0.11 and -0.197 ± 0.11.
Regarding GGCUAGCAAUAUUACGCUAG, the “self-splicing fitness (ln)” value was -2.5 ± 0.3 (30 °C) and -1.45 ± 0.34 (37 °C).
The corresponding values for CAGAAGCAAUAUUACGGGGA are -4.87 ± 0.36 and -1.61 ± 0.11.
The corresponding values for CUAGAGCAAUAUUACGACAG are 0.262 ± 0.087 and 0.734 ± 0.12.
Turning to UGGGAGCAAUAUUACGUAGA, under “30 °C”, the “self-splicing fitness (ln)” value is -2.19 ± 0.26.
Turning to AGUAAGCAAUAUUACGUUUA, the “self-splicing fitness (ln)” value (30 °C) was -2.84 ± 0.22 and the “self-splicing fitness (ln)” value (37 °C) is -1.56 ± 0.18.
The corresponding values for CUCGAGCAAUAUUACGUUCC are -3.4 ± 0.19 and -2.63 ± 0.27.
The like results for UGACAGCAAUAUUACGAGAG were, in that order, -3.08 ± 0.14 and -1.75 ± 0.11.
On to ACCUAGCAAUAUUACGCCGA, for which the “self-splicing fitness (ln)” value is -2.23 ± 0.13 (30 °C) and -1.01 ± 0.13 (37 °C).
The like results for GUUUAGCAAUAUUACGACAA were, in that order, -2.09 ± 0.21 and -0.807 ± 0.19.
For the sequence GGGUAGCAAUAUUACGUAGA, the “self-splicing fitness (ln)” value was -1.89 ± 0.17 (30 °C) and -0.619 ± 0.15 (37 °C).
The like results for UUAUAGCAAUAUUACGCUUC were, in that order, -3.49 ± 0.32 and -3.42 ± 0.43.
The corresponding values for GCGUAGCAAUAUUACGCCUA are -1.76 ± 0.45 and -1.07 ± 0.35.
The corresponding values for UUGUAGCAAUAUUACGCAGA are -2.2 ± 0.35 and -0.763 ± 0.28.
In the case of CAAGAGCAAUAUUACGUCUC, the “self-splicing fitness (ln)” value by setting is: (30 °C) -3.6 ± 0.17; (37 °C) -2.73 ± 0.18.
Regarding ACUAAGCAAUAUUACGUUAU, the “self-splicing fitness (ln)” value (30 °C) is -3.49 ± 0.13 and the “self-splicing fitness (ln)” value (37 °C) was -1.55 ± 0.11.
The like results for GCGUAGCAAUAUUACGAUUA were, in that order, -0.494 ± 0.082 and 0.608 ± 0.085.
The like results for UGGUAGCAAUAUUACGUAUG were, in that order, -1.66 ± 0.13 and -1.18 ± 0.13.
The like results for GACGAGCAAUAUUACGUAUG were, in that order, -2.4 ± 0.17 and -1.58 ± 0.16.
Regarding CCAGAGCAAUAUUACGCAGC, the “self-splicing fitness (ln)” value by setting is: (30 °C) -3.64 ± 0.28; (37 °C) -1.77 ± 0.24.
As for UCUUAGCAAUAUUACGCAUU, the “self-splicing fitness (ln)” value is -4.23 ± 0.19 (30 °C) and -2.47 ± 0.16 (37 °C).
As to CUAGAGCAAUAUUACGCUAC, the “self-splicing fitness (ln)” value (30 °C) was -2.83 ± 0.27.
As for UUAAAGCAAUAUUACGUCAA, the “self-splicing fitness (ln)” value runs as follows: (30 °C) -0.222 ± 0.082; (37 °C) -0.107 ± 0.095.
The corresponding values for UGGCAGCAAUAUUACGAUUA are -0.716 ± 0.089 and 0.492 ± 0.11.
The corresponding values for GGAAAGCAAUAUUACGAUGG are -3.14 ± 0.22 and -2.39 ± 0.21.
For the sequence CAAUAGCAAUAUUACGUGGA, the “self-splicing fitness (ln)” value is, setting by setting: (30 °C) -3.29 ± 0.25; (37 °C) -2.92 ± 0.22.
The corresponding values for GAUCAGCAAUAUUACGACCU are -0.708 ± 0.089 and -0.346 ± 0.1.
The like results for ACAAAGCAAUAUUACGACAA were, in that order, -0.955 ± 0.15 and -0.443 ± 0.13.
The like results for CGGAAGCAAUAUUACGAUAG were, in that order, -1.11 ± 0.082 and 0.166 ± 0.1.
On to UCUCAGCAAUAUUACGGCGU, for which the “self-splicing fitness (ln)” value was -0.533 ± 0.087 (30 °C) and -0.636 ± 0.12 (37 °C).
On to AUUCAGCAAUAUUACGAAGG, for which the “self-splicing fitness (ln)” value is, setting by setting: (30 °C) -1.02 ± 0.087; (37 °C) -0.355 ± 0.12.
As for GGGAAGCAAUAUUACGGGGU, where the note is “37 °C”, the “self-splicing fitness (ln)” value is -2.7 ± 0.34.
On to AUUCAGCAAUAUUACGGAAU, for which the “self-splicing fitness (ln)” value is -2.86 ± 0.14 (30 °C) and -2.61 ± 0.23 (37 °C).
The like results for GUGUAGCAAUAUUACGAAGU were, in that order, -2.86 ± 0.34 and -1.67 ± 0.25.
The corresponding values for UAGCAGCAAUAUUACGGGGU are -3.72 ± 0.14 and -2.99 ± 0.16.
The corresponding values for UGUCAGCAAUAUUACGCCCG are -0.222 ± 0.15 and -0.125 ± 0.21.
With CGGUAGCAAUAUUACGCGCU, the “self-splicing fitness (ln)” value (30 °C) is -3.13 ± 0.39.
Consider UCACAGCAAUAUUACGCGUA, for which the “self-splicing fitness (ln)” value runs as follows: (30 °C) -1.09 ± 0.086; (37 °C) -0.297 ± 0.082.
Consider AUAGAGCAAUAUUACGCGGG, for which the “self-splicing fitness (ln)” value reads like this: (30 °C) -2.17 ± 0.12; (37 °C) -2.33 ± 0.16.
As for CGUGAGCAAUAUUACGGAAU, the “self-splicing fitness (ln)” value (37 °C) is -2.84 ± 0.38.
In the case of UCCGAGCAAUAUUACGGCGG, the “self-splicing fitness (ln)” value runs as follows: (30 °C) -2.11 ± 0.14; (37 °C) -2.2 ± 0.15.
Take CUAGAGCAAUAUUACGGAGA: the “self-splicing fitness (ln)” value (30 °C) is -2.51 ± 0.26 and the “self-splicing fitness (ln)” value (37 °C) was -2.51 ± 0.48.
The like results for UAGGAGCAAUAUUACGCUCA were, in that order, -1.55 ± 0.19 and -1.37 ± 0.16.
